Earlier results in PMC3236687.

What was measured:
[1] = biological target: endothelin receptor (renal papillary membranes) (Sus scrofa) (UniProt P35463); experiment: radioligand
[2] = biological target: endothelin receptors (IMCD cells) (Rattus norvegicus) (UniProt P26684); experiment: radioligand
Chain of UniProt P26684 (P26684 21-426, chain 1 of 2): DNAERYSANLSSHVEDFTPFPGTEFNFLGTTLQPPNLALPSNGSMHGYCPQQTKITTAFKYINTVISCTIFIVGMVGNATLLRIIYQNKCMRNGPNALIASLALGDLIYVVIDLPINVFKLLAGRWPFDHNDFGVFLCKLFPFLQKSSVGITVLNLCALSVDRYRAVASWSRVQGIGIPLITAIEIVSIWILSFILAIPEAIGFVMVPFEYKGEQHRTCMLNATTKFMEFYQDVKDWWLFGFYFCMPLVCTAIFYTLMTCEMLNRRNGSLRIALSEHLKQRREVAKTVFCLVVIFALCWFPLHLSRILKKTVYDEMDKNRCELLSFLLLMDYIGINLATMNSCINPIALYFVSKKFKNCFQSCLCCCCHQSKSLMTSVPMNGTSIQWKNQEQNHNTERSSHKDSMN
Chain of UniProt P26684 (P21451 27-442, chain 2 of 2, further chain): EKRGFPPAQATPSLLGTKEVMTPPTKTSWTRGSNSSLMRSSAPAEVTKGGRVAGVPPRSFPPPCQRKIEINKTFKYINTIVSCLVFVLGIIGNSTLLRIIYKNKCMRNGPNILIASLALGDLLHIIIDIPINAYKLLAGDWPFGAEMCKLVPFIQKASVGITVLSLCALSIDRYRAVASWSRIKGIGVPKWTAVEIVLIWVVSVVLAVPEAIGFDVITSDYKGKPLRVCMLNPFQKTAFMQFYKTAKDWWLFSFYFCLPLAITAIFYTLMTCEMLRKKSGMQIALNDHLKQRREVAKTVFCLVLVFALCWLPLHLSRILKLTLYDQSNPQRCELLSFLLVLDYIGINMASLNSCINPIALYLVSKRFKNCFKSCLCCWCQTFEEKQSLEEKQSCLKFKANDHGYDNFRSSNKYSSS

Chain of UniProt P35463 (P35463 27-443): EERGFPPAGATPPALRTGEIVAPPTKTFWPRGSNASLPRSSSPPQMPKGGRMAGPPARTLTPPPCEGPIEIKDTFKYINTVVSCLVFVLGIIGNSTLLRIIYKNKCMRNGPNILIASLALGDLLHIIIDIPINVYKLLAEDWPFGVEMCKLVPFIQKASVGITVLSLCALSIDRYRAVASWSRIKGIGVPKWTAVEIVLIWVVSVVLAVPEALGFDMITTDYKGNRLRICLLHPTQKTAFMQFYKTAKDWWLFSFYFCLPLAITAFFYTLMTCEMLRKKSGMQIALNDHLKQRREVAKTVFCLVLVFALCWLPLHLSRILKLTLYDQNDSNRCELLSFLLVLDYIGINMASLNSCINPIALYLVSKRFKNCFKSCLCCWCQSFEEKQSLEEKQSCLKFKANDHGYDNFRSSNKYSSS

In the case of ET-1 (from UniProt P05305), the Kd [1] is listed as 0.137 nM and the Kd [2] is listed as 0.218 nM.
